Test results as given in patent publication US5691166.

How the values were obtained:
[1] = target: acid-denatured hemoglobin
[2] = target: epidermal growth factor (recombinantly synthesized molecule consisting of the first 52 amino acids of the authentic 53 amino acid EGF molecule)
[3] = target: growth hormone releasing factor (recombinantly synthesized as described in EP 206783)

Substance	proteinase A activity, ΔOD/µg protein (release of amino acids from acid-denatured hemoglobin, 90 min) (ΔOD/µg protein) [1]	intact peptide remaining after 8 h incubation in broth (reverse phase HPLC) [2] [% intact]	intact peptide remaining after 4 h incubation in broth (reverse phase HPLC) [3] [% intact]
Saccharomyces cerevisiae proteinase A (encoded by the S. cerevisiae PEP4 gene) (from UniProt P07267) (enzyme)	28.1		
proteolytic activity of the cell-free broth from the one-liter fermentation of the pep4 P. pastoris strain p13		> 90	> 60
proteolytic activity of the cell-free broth from a one-liter fermentation of the HIS4 PEP4 P. pastoris strain G+PAO804H2		< 10	< 10
Pichia pastoris proteinase A (product of the Pichia PEP4 gene) (enzyme)	13.1		
